This data set addresses Streptavidin (UniProt P22629 25-183). In words: SPR; kon 1.5e4 M-1 s-1, koff 2.2e-3 s-1; 1:1 Langmuir fit, chi2 0.535; 900 RU chip; Binding buffer 20 mM Tris, 140 mM NaCl, 5 mM MgCl2, 2 mM CaCl2, 2 mM KCl, 0.05% Tween 20, pH 7.4; SPR at 25 C, 30 ul/min; FLAA 1 h at room temperature. The note with it: protein: commercial; chain copies: 4.

For 1 molecule, Kd results are on record in article PMC3248438, “Probing the SELEX Process with Next-Generation Sequencing”.

Broadly, the Kd is the constant that tells how readily two partners part at equilibrium.

Chain of Streptavidin (P22629 25-183): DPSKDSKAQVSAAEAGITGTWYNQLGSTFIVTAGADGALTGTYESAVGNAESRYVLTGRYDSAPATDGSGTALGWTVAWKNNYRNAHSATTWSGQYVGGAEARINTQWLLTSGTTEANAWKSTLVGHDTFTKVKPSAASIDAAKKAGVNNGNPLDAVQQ

As to ATCTCCGATTGCCCCACGACGCAGTGGTCGGAGTTACTTT (ssDNA) [R10#17], the Kd came out at 140 nM.
